Measurements reported in patent US20260231968A1, “AN ECO-FRIENDLY, SUSTAINABLE FOOD PRESERVATIVE” (priority 2023, published 2026).

Tests used:
[1] = test system: Aspergillus flavus; assay: Dose-response growth assay in 96 well plates, A. flavus in RPMI-MOPS; assay type: cell-based; conditions: A. flavus, 5,000 spores, absorbance 600 nm
Description: A. flavus A11 spores were seeded on 10 cm plates of YAG-agarose for 3-4 days in a humidified incubator at 30° C. After sporulation, fresh spores were collected with 5 ml DDW+0.2% Tween. Spores were then centrifuged at room temperatures (5 min, 4,000 RPM), and suspended in 5 ml DDW. The suspension was termed “A. flavus fresh stock”.
A. flavus fresh stock was diluted ×1000 using DDW, and the spores were counted using a cytometer to determine the stock spores' concentration. A. flavus fresh stock was used for one week after spore production before disposal.
(§1) RPMI-MOPS (RPMI Powder, 165 mM MOPS, and Pen/Strep solution (x100)) was inoculated with either 50,000 spores/ml of A. flavus, or 1 colony/10 ml of C. albicans. The inoculated RPMI-MOPS was poured into a Nunclone™ coated 96-well plate (100 μl per well), with the different treatments and controls. The 96-well plate was then incubated in a shaker/incubator plate-reader at 30° C. where the absorbance (600 nm) was monitored and measured every 10 minutes.
In order to evaluate the ability of recombinant His-psoriasin to inhibit the growth of Aspergillus flavus, 5,000 spores were incubated in a RPMI-MPS medium with variable concentrations of psoriasin added to each well. Fungi growth was monitored using an absorbance plate reader every 10 minutes at 600 nm.

[2] = test system: microbial load of plant-based ground meat (soy protein); assay: Microbial load of plant-based ground meat (soy protein) with psoriasin and/or nisin; assay type: cell-based; conditions: 0.65% w/w His-psoriasin; 1.5 mg nisin; 5 g soy protein in 7.5 ml PBS
Description: The ability of psoriasin to inhibit bacterial and fungal growth, with and without nisin was evaluated. Commercial plant-based ground meat (soy protein) was divided into 4 groups, each containing 5 grams of soy protein. The sample designated as “non-treated” contained 5 g of soy protein in 7.5 ml of PBS×1. The sample designated as “psoriasin” contained 5 g of soy protein in 7.5 ml of PBS×1 with 0.65% w/w of His-psoriasin. The sample designated as “nisin” contained 5 g of soy protein in 7.5 ml PBS×1 with 1.5 mg of nisin. The combined treatment group (“psoriasin+nisin”) contained 5 g of soy protein with both his-psoriasin and nisin at the same concentrations. The samples were incubated in […], and the microbial load was evaluated by seeding the different test groups on LB-agarose plates containing no antibiotics or on YAG-agarose plates with the antibiotics.

[3] = test system: C. albicans; assay: Fungal growth in natural apple and beetroot juice; assay type: cell-based, Candida albicans; conditions: pH=7, 40 μM and 400 μM
Description: Natural beetroot and apple juice without preservatives, was diluted ×0.5 with PBS×1 to avoid high background absorbance. The juice was titrated to pH=7.4 with 1M NaOH, inoculated with C. albicans (1 colony/10 ml), treated with 40 μM and 400 μM His-psoriasin, and monitored with the same measuring program as the RPMI-MOPS experiments. In order to evaluate the effect of His-psoriasin on fungal growth in juice, natural apple and beetroot juices were inoculated without any preservatives with C. albicans. The samples were titrated to pH=7 and treated with 40 μM and 400 μM of recombinant His-psoriasin. The samples were placed in a 96 well-plate and absorbance at 600 nm was monitored vs. time.

[4] = Thermal stability of psoriasin, microbial growth inhibition test (CLSI M27/M38); assay type: cell-based; conditions: stock 36 mg/mL in 1×PBS, 4° C to 84° C for one hour
Description: In order to assess its thermal stability, psoriasin stock (36 mg/mL in 1×PBS) was subjected to various temperatures ranging from 4° C. to 84° C. for one hour. The thermally treated psoriasin was subsequently used in a microbial growth inhibition test based on standardized protocols M27 (yeasts) and M38 (filamentous fungi) of the Clinical and Laboratory Standards Institute.

[5] = test system: 3T3 cells; assay: Cell viability assay based on luminescence (cell-titer kit); conditions: 2-74 μM, 24 h
Description: To assess any potential deleterious effects of psoriasin, such as cytotoxicity, a cell viability assay was performed based on luminescence, in which decreased luminescence is indicative of reduced cell viability. Various concentrations of psoriasin ranging from 2-74 μM, were tested on 3T3 cells. Approximately 5000 cells were plated in each well of a 96 well-plate and following overnight incubation, psoriasin was added in the indicated concentration within the medium to the cells (performed in triplicate). Luminescence values were recorded after an additional 24 h using the cell-titer kit (Promega Ltd.) in a BioTek Synergy plate reader.

[6] = test system: microbial load of hummus salad; assay: Shelf life of hummus salad at pH 4.8; assay type: cell-based; conditions: pH 4.8, stored at 6° C, psoriasin 0.2%
Description: The ability of psoriasin to extend the shelf life of a hummus salad preparation was examined. A commercially-available preparation that is acidified at pH 4.8 and to which 0.2% potassium sorbate was added in order to ensure food safety was compared to a hummus salad at the same pH with and without the addition of psoriasin at the same concentration. No antibiotics were added and there was no addition of mold, yeast or bacteria to the preparation.
Samples were stored at 6° C. and total CFU counts were performed on days 0, 12, 26, and 62 by plating on LB and PDA agar petri dishes. Photos (i.e., visual inspection) were taken every 7 days. As is evident from FIG. 14A, psoriasin extended the shelf life of the hummus salad at pH 4.8 by 2 months.

[7] = test system: Candida albicans; assay: Dose-response growth assay in 96 well plates, C. albicans in RPMI-MOPS (also zinc and pH variation); assay type: cell-based
Description: C. albicans were seeded on 10 cm plates of YAG-agarose for 1-2 days in a humidified incubator at 30° C. C. albicans colonies were used for 48 hours after their appearance before disposal.
as §1
In Example 4, several ZnCl2 concentrations were added to 1 μM of His-psoriasin.
In Example 5, RPMI-MOPS was titrated to the different pH levels using 1M NaOH solution (RMPI-MOPS, initial pH ~4).
In order to evaluate the ability of recombinant His-psoriasin to inhibit the growth of Candida albicans, a single colony/10 ml was incubated in a RPMI-MOPS medium with variable concentrations of psoriasin added to each well. Fungi growth was monitored using an absorbance plate reader every 10 minutes at 600 nm. No apparent growth was measured in psoriasin concentrations higher than 300 nM for C. albicans (FIG. 2).
In order to test the effect of zinc ions on the ability of psoriasin to inhibit fungal growth, Candida albicans was incubated in a RPMI-MOPS medium in the presence of 1 μM psoriasin with variable concentrations of ZnCl2.
Candida albicans was incubated in a RPMI-MOPS medium in the presence of 10 μM His-psoriasin at variable pHs. […] Accordingly, effective anti-fungal activity of His-psoriasin can be obtained also at pH levels that are lower than pH=8.

B1: psoriasin: Recombinant human psoriasin (S100a7) containing a histidine tag, amino acid sequence SEQ ID NO: 11, expression vector pET-28a (protein, listed as Homo sapiens)
chain: MSNTQAERSIIGMIDMFHKYTRRDDKIEKPSLLTMMKENFPNFLSACDKKGTNYLADVFEKKDKNEDKKIDFSEFLSLLGDIATDYHKQSHGAAPCSGGSQ
[1]
  psoriasin concentration above which no apparent growth was measured: higher than 375 nM
[2]
  total microbial count on LB-agarose plates containing no antibiotics: inhibited microbial growth
  total yeast/mold count on YAG plates with antibiotics: inhibited fungal/yeast growth
[3]
  fungal proliferation in juice: not able to proliferate
[4]
  inhibitory properties after thermal treatment: maintained its inhibitory properties
[5]
  cell viability (luminescence): No change in luminescence was detected
[6]
  extension of shelf life of hummus salad: 2 months
[7]; 10 μM His-psoriasin, RPMI-MOPS
  C. albicans proliferation at variable pHs: prevent C. albicans proliferation at all the tested pH levels
[7]; C. albicans single colony/10 ml, RPMI-MOPS, absorbance 600 nm
  psoriasin concentration above which no apparent growth was measured: higher than 300 nM
[7]; in the presence of 1 μM psoriasin
  ZnCl2 concentration above which the fungi retained their full ability to grow: above 1.2 μM
